Reference: patent US20040082762A1 (Janssen / Centocor, published 2004)
One block for each binder: values may come before it.

Target: T1, Aβ 1-42 peptide (human, UniProt P05067 672-713)
T1 construct: domain: Aβ 1-42; also called Aβ42
Test: competitive ELISA on Aβ1-42; labelled antibody biotinylated murine 12B4

T1 sequence (P05067 672-713 limits assumed): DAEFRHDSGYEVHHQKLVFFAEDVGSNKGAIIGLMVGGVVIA

binding result: binds
B1: chimeric 12B4 (antibody, V domains shown)
VH: QVTLKESGPGILQPSQTLSLTCSFSGFSLSTNGMGVSWIRQPSGKGLEWLAHIYWDEDKRYNPSLKSRLTISKDTSNNQVFLKITNVDTADTATYYCARRRIIYDVEDYFDYWGQGTTLTVSS
VL: DVLMTQTPLSLPVSLGDQASISCRSSQNIVHSNGNTYLEWYLQKPGQSPKLLIYKVSNRFSGVPDRFSGSGSGTDFTLKISRVEAEDLGVYYCFQGSHVPLTFGAGTKLELK
notes: Murine 12B4 variable regions joined to human gamma 1 and C kappa constant regions (vectors pCMV-hγ1 and pCMV-hκ1), expressed in COS cells; also called chimeric 12B4 antibody

binding result: binds
B2: murine 12B4 (antibody, V domains shown)
VH: B1 VH
VL: B1 VL
notes: Mouse monoclonal antibody of the IgG2a isotype; also called mAb 12B4; mouse 12B4
